Experimental data from patent US20250026827A1 (Alector, published 2025).
Where a chain is given by its changes, count along the chain named. Like-named read-outs stand apart in the source and are kept apart here.

Key:
[1] = molecular target: T1, human SIRPβ1 domain 1 (D1) Fc fusion (human, UniProt O00241 30-148); experiment: Octet, Fab monovalent
T1 construct: Made in HEK293/T cells with a heterologous signal peptide; also called Human SIRPβ1 D1-Fc; Human SIRPβ1-Fc; not shown: C-terminal human IgG1 Fc
T1 sequence (O00241 30-148 limits assumed): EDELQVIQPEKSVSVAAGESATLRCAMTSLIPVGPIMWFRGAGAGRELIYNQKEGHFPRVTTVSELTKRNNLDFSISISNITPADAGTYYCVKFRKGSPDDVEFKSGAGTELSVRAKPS

[2] = molecular target: T2, human SIRPα domain 1 (D1) Fc fusion (human, UniProt P78324 32-149); experiment: Octet, IgG avid
T2 construct: also called human SIRPα D1-Fc; Human SIRPα Fc; not shown: C-terminal human IgG1 Fc

[3] = molecular target: T3, mouse SIRPβ1 on CHO cells (mouse); experiment: flow cytometry;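 on FOB: antibody binding to cells detected with a PE-labelled secondary antibody, given as mean fluorescence intensity relative to background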
T3 construct: Whole entry
T3 chain: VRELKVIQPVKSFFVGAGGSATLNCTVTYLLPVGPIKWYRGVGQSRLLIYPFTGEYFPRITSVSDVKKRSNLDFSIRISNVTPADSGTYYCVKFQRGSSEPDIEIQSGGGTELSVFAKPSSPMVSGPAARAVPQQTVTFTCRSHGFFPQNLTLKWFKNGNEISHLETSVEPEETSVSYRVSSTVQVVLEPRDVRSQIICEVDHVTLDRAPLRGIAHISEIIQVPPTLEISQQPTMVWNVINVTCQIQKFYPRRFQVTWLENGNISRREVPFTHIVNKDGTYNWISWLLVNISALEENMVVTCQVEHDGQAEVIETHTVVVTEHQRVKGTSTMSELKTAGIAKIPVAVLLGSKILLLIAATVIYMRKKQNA

human SIRPα on cells [4] = molecular target: T4, human SIRPα on cells (human, UniProt P78324 31-504); experiment: flow cytometry;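 on FOB: antibody binding to cells detected with a PE-labelled secondary antibody, given as mean fluorescence intensity relative to background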
T4 construct: Whole entry

[5] = molecular target: T3, mouse SIRPβ1 on CHO cells; experiment: flow cytometry;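 on FOB: antibody binding to cells detected with a PE-labelled secondary antibody, given as mean fluorescence intensity relative to background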
[6] = molecular target: T5, human SIRPβ1 isoform 1 on cells (human, UniProt O00241 30-398); experiment: flow cytometry;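 further: antibody binding to cells detected with a PE-labelled secondary antibody, given as mean fluorescence intensity relative to background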
T5 construct: On CHO cells (low level), on BWZ/BW5147.G.1.4 cells (reporter cells co-express human DAP12) or on primary human myeloid cells; also called huSIRPβ1; BWZ-huSIRPβ1
T5 sequence (O00241 30-398): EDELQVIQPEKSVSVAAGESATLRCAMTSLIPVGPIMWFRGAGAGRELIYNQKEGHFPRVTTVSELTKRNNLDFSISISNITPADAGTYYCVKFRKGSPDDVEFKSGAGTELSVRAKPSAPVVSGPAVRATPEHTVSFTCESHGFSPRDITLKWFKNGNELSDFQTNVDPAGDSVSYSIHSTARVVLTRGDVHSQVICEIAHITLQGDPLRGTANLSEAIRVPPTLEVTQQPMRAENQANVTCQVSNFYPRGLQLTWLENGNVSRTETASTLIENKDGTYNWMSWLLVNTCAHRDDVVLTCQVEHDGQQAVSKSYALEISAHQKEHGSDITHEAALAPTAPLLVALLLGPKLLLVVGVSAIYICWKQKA

human SIRPα on cells [7] = molecular target: T4, human SIRPα on cells; experiment: flow cytometry; remark: listed apart in the source
[8] = molecular target: T5, human SIRPβ1 isoform 1 on cells; experiment: cell binding titration; target not given
[9] = molecular target: T1, human SIRPβ1 domain 1 (D1) Fc fusion; experiment: Octet, Fab monovalent; remark: listed apart in the source
Method: Briefly, Octet® affinity measurements were performed by loading IgGs on-line onto AHQ sensors. Sensors were equilibrated off-line in assay buffer for 30 min and then monitored on-line for 60 seconds for baseline establishment. For avid binding measurement, sensors with loaded IgGs were exposed to 100 nM antigen (human SIRPα or SIRPβ1 Fc fusion) for 3 min, and then transferred to assay buffer for 3 min for off-rate measurement. Additional avid binding was determined by loading biotinylated SIRPβ1 monomer on SA sensors and exposuring to 100 nM IgG in solution. Monovalent binding measurements were obtained by loading human SIRPβ1 Fc fusion antigens to AHQ sensor, followed by exposure to 100 nM anti-SIRPβ1 antibody Fab. Additional monovalent measurements were made by loading biotinylated human SIRPβ1 monomer to SA sensor followed by exposure to 100 nM Fab in solution. Kinetics data were fit using a 1:1 binding model in the data analysis software provided by ForteBio.

B1: SB-17 Fab (Fab, V domains shown)
VH: QVQLVQSGAEVKKPGASVKVSCKASGYTFTSYGISWVRQAPGQGLEWMGWISAYNGNTNYAQKLQGRVTMTTDTSTSTAYMELRSLRSDDTAVYYCARGPLLYGDYHVRYGMDVWGQGTTVTVSS
VL: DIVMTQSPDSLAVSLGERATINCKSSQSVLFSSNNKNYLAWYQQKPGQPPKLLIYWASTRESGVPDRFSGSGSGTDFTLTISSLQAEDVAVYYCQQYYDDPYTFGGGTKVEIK
notes: Fab by papain digestion
- Kd [1]: 246 nM

B2: SB-15 Fab (Fab, V domains shown)
VH: QLQLQESGPGLVKPSETLSLTCTVSGGSISSNSYYWGWIRQPPGKGLEWIGSIYYSGSTYYNPSLKSRVTISVDTSKNQFSLKLSSVTAADTAVYYCAREVGAPPSYPFDIWGQGTMVTVSS
VL: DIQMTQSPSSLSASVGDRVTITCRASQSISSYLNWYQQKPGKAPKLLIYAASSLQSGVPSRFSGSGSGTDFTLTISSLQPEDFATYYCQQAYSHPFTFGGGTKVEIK
notes: Fab by papain digestion
- Kd [1]: 407 nM

B3: SB-49 Fab (Fab, V domains shown)
VH: QLQLQESGPGLVKPSETLSLTCTVSGGSISSSDYYWGWIRQPPGKGLEWIGSIYYSGSTYYNPSLKSRVTISVDTSKNQFSLKLSSVTAADTAVYYCARGPTGYKDKWRYYYGMDVWGQGTTVTVSS
VL: DIQMTQSPSSLSASVGDRVTITCQASQDITNYLNWYQQKPGKAPKLLIYDASNLETGVPSRFSGSGSGTDFTFTISSLQPEDIATYYCQQYFHPPLTFGGGTKVEIK
notes: Fab by papain digestion
- Kd [1]: 156 nM

B4: SB-40-19 (antibody, V domains shown)
VH: QVQLVQSGAEVKKPGASVKVSCKASGYTFTSYYMVWVRQAPGQGLEWMGIINPSSGATNYAQKFQGRVTMTTDTSTSTAYMELRSLRSDDTAVYYCARDTGEYSYSPHGMDVWGQGTTVTVSS
VL: EIVLTQSPATLSLSPGERATLSCRASQSVSSYLAWYQQKPGQAPRLLIYDSSNRATGIPARFSGSGSGTDFTLTISSLEPEDFAVYYCQQRDEHPPWTFGGGTKVEIK
notes: IgG
- binding result [2]: no binding (tested: 100 nM)
- binding result [3]: no binding (tested: 1 ug/ml)
- binding result (human SIRPα on cells [4]): no binding (tested: 1 ug/ml)
- FOB [5]: 2 fold over background
- FOB [6]: 3 fold over background
- FOB (human SIRPα on cells [7]): 1 fold over background
- EC50 [8]: 0.713 nM

B5: SB-40 Fab (Fab, V domains shown)
VH: B4 VH with V35S, S55G, A57S, N59S, T72R, A79V, R84S, D89E
VL: B4 VL
notes: Fab by papain digestion
- Kd [9]: 918 nM
- Kd [1]: 427 nM

B6: SB-40-18 (antibody, V domains shown)
VH: QVQLVQSGAEVKKPGASVKVSCKASGYTFTSYYMAWVRQAPGQRLEWMGWINPAVGATIYSQKFQGRVTITRDTSASTAYMELSSLRSEDTAVYYCARDTGEYSYSPHGMDVWGQGTTVTVSS
VL: B4 VL
notes: IgG
- binding result [2]: no binding (tested: 100 nM)
- binding result [3]: no binding (tested: 1 ug/ml)
- binding result (human SIRPα on cells [4]): no binding (tested: 1 ug/ml)
- FOB [5]: 2 fold over background
- FOB [6]: 4 fold over background
- FOB (human SIRPα on cells [7]): 1 fold over background
- EC50 [8]: 0.32 nM

B7: SB-11 Fab (Fab, V domains shown)
VH: QVQLVQSGAEVKKPGSSVKVSCKASGGTFSNYAISWVRQAPGQGLEWMGGIIPIFGTANYAQKFQGRVTITADESTSTAYMELSSLRSEDTAVYYCARPVDSSSYSLGYYYGMDVWGKGTTVTVSS
VL: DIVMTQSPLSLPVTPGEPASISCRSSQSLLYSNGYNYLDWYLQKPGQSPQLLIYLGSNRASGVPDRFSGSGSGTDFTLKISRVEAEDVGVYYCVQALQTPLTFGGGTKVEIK
notes: Fab by papain digestion
- Kd [1]: 678 nM

B8: SB-1-4 (antibody, V domains shown)
VH: QVQLVESGGGVVQPGGSLRLSCAASGFTFSAYGMNWVRQAPGKGLEWVSAIRASGGATYYADSVKGRFTISRDNSKNTLYLQMNSLRAEDTAVYYCAKDFTEVVGWLGMDVWGQGTTVTVSS
VL: EIVMTQSPGTLSLSPGERATLSCRASQSVSSSYLAWYQQKPGQAPRLLIYGASSRATGIPDRFSGSGSGTDFTLTISRLEPEDFAVYYCQLLGSSPRTFGGGTKVEIK
notes: IgG
- binding result [2]: no binding (tested: 100 nM)
- binding result [3]: no binding (tested: 1 ug/ml)
- binding result (human SIRPα on cells [4]): no binding (tested: 1 ug/ml)
- FOB [5]: 1 fold over background
- FOB [6]: 3 fold over background
- FOB (human SIRPα on cells [7]): 1 fold over background
- EC50 [8]: 0.073 nM

B9: SB-2 Fab (Fab, V domains shown)
VH: QVQLVESGGGVVQPGRSLRLSCAASGFTFSSYGMNWVRQAPGKGLEWVAVIWYDGSNKYYADSVKGRFTISRDNSKNTLYLQMNSLRAEDTAVYYCARDQTAAAAIWGMDVWGQGTTVTVSS
VL: B8 VL with M4L, L91Q, L92S, G93S, S95H, R97F
notes: Fab by papain digestion
- Kd [9]: 977 nM
- Kd [1]: 266 nM

B10: SB-1 Fab (Fab, V domains shown)
VH: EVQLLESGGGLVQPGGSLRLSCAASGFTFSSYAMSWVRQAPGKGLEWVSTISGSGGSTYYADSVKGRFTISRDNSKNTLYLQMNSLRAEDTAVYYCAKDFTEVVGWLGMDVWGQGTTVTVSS
VL: B8 VL
notes: Fab by papain digestion
- Kd [9]: 172 nM
- Kd [1]: 97.9 nM

B11: SB-6 Fab (Fab, V domains shown)
VH: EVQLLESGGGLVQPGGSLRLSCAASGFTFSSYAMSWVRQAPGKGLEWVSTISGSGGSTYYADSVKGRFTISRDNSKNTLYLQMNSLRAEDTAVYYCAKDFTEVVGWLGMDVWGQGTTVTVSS
VL: B8 VL with M4L, L91Q, L92S, S94H, S95L, R97I
notes: Fab by papain digestion
- Kd [1]: 131 nM

B12: SB-2-10 (antibody, V domains shown)
VH: EVQLLESGGGLVQPGGSLRLSCAASGFTFGSYGMHWVRQAPGKGLEWVSAISGLAGQTYADSVKGRFTISRDNSKNTLYLQMNSLRAEDTAVYYCARDQTAAAAIWGMDVWGQGTTVTVSS
VL: B8 VL with M4L, L91Q, L92S, G93S, S95H, R97F
notes: IgG
- binding result [2]: no binding (tested: 100 nM)
- binding result [3]: no binding (tested: 1 ug/ml)
- binding result (human SIRPα on cells [4]): no binding (tested: 1 ug/ml)
- FOB [5]: 2 fold over background
- FOB [6]: 4 fold over background
- FOB (human SIRPα on cells [7]): 1 fold over background
- EC50 [8]: 0.234 nM

B13: SB-2-9 (antibody, V domains shown)
VH: B9 VH with S30K, S31T, N35H, V50H, D54E, Y59V
VL: B8 VL with I2V, M4L, L91Q, L92S, G93S, S95H, R97F
notes: IgG
- binding result [2]: no binding (tested: 100 nM)
- binding result [3]: no binding (tested: 1 ug/ml)
- binding result (human SIRPα on cells [4]): no binding (tested: 1 ug/ml)
- FOB [5]: 2 fold over background
- FOB [6]: 4 fold over background
- FOB (human SIRPα on cells [7]): 1 fold over background
- EC50 [8]: 0.469 nM

B14: SB-1-5 (antibody, V domains shown)
VH: B8 VH with G16R, R52S, G56R, A57S, Y59F
VL: B8 VL
notes: IgG
- binding result [2]: no binding (tested: 100 nM)
- binding result [3]: no binding (tested: 1 ug/ml)
- binding result (human SIRPα on cells [4]): no binding (tested: 1 ug/ml)
- FOB [5]: 2 fold over background
- FOB [6]: 3 fold over background
- FOB (human SIRPα on cells [7]): 1 fold over background
- EC50 [8]: 0.038 nM

B15: SB-8 Fab (Fab, V domains shown)
VH: QVQLQESGPGLVKPSETLSLTCAVSGYSISSGYYWGWIRQPPGKGLEWIGSIYHSGSTYYNPSLKSRVTISVDTSKNQFSLKLSSVTAADTAVYYCARGGAMTPAGMDVWGQGTTVTVSS
VL: B8 VL with S54N, L91Q, L92V, G93Y, R97Y
notes: Fab by papain digestion
- Kd [9]: 151 nM
- Kd [1]: 126 nM

B16: SB-8-14 (antibody, V domains shown)
VH: B15 VH with S31P, G32H, S57H
VL: B8 VL with S54N, L91Q, L92V, G93Y, R97Y
notes: IgG
- Kd [2]: 18.3 nM
- binding result [3]: no binding (tested: 1 ug/ml)
- FOB [5]: 1 fold over background
- FOB [6]: 7 fold over background
- EC50 [8]: 0.304 nM

B17: SB-8-16 (antibody, V domains shown)
VH: B15 VH with S31A, G32H, Y53F, S57H, G99A
VL: B8 VL with S54N, L91Q, L92V, G93Y, R97Y
notes: IgG
- binding result [2]: no binding (tested: 100 nM)
- binding result [3]: no binding (tested: 1 ug/ml)
- binding result (human SIRPα on cells [4]): no binding (tested: 1 ug/ml)
- FOB [5]: 2 fold over background
- FOB [6]: 9 fold over background
- FOB (human SIRPα on cells [7]): 1 fold over background
- EC50 [8]: 0.147 nM

B18: SB-2-11 (antibody, V domains shown)
VH: B12 VH with E1Q, L5V, G30A, S31R, Q57P, A103W, A104G
VL: B8 VL with M4L, L91Q, L92S, G93S, S95H, R97F
notes: IgG
- binding result [2]: no binding (tested: 100 nM)
- binding result [3]: no binding (tested: 1 ug/ml)
- binding result (human SIRPα on cells [4]): no binding (tested: 1 ug/ml)
- FOB [5]: 2 fold over background
- FOB [6]: 6 fold over background
- FOB (human SIRPα on cells [7]): 0 fold over background
- EC50 [8]: 0.22 nM
